Assay results reported in article PMC6994640.

Molecular target: CgIgR (native, oyster hemocytes) (Crassostrea gigas (endogenous in oyster hemocytes))
Assay: cross-linking

stoichiometry N: 2
Substance: CgIgR (native, oyster hemocytes) (receptor)
